# From the supplement of paper PMC12764529
# ± gives the half width of the 95% confidence interval.
# Experiments:
# [1] = folding stability dG unfold (combined trypsin and chymotrypsin); higher = more stable
# Summary of the method: (§1)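 Designed mini-proteins with no cysteine and under 80 residues were kept only if AlphaFold2 dimer inter-PAE was above 15. In a PA-tagged cDNA display construct, they were digested with trypsin and chymotrypsin and then sequenced. K50 was inferred by Bayesian fitting of counts, and unfolding free energy was derived per protease or combined against a sequence-predicted unfolded-state K50 and a shared folded-state K50.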
# [2] = folding stability dG unfold from trypsin proteolysis; higher = more stable
# Summary of the method: as §1
# [3] = folding stability dG unfold from chymotrypsin proteolysis; higher = more stable
# Summary of the method: as §1
Sequence,folding stability dG unfold [1],folding stability dG unfold [2],folding stability dG unfold [3]
SAPMKIVKKTDNTLYIYDKKTKKIVKITINDGTITVEEITYDKKTKEKKVETKTIKLSEEQLKKLKKLLSAG [r14_245_TrROS_Hall],1.23 ± 0.14 kcal/mol,1.54 ± 0.079 kcal/mol,0.7 ± 0.24 kcal/mol
SAGGKMLVKIKIKVTIYDKNGKPVKEVELELVFPSLEDLLNALKSLSPEKIKKVEIVSIEEIDEEDLSAGGS [r16_677_TrROS_Hall],3.73 ± 0.21 kcal/mol,3.5 ± 0.26 kcal/mol,4.06 ± 0.32 kcal/mol
SPAAELARRLFEELGLEAELVSVDPERRRVTFRVRHPDRAPLLLEVVYDPERPVFAIALNPETGRAVVPVSA [r9_1119_TrMRF],2.73 ± 0.1 kcal/mol,1.8 ± 0.039 kcal/mol,3.11 ± 0.036 kcal/mol
SAGGSAGGSPDAPPPPVNVVVPIPESELLSEEELPGGTTLRTYRLPDGTEITVRTAPDGRVTVDSAGGSAGG [r6_119_JUSTAS],3.57 ± 0.13 kcal/mol,3.01 ± 0.16 kcal/mol,3.86 ± 0.059 kcal/mol
SAGGSAGGSAGPLTLTATFLSDYNYAVTVTLTFEVDENGNLSVSGEVEIRPVPPLGPGNASAGGSAGGSAGG [r11_728_TrMRF],3.72 ± 0.15 kcal/mol,2.42 ± 0.1 kcal/mol,4.05 ± 0.11 kcal/mol
SAGGSAGGSAGGSADKNGYVKIPITVFTMERYGNGQPKMETVKVEIYVPPGESIEDLLQSAGGSAGGSAGGS [r4_283_TrROS],0.247 ± 0.22 kcal/mol,0.0466 ± 0.19 kcal/mol,0.166 ± 0.32 kcal/mol
SAGGSAGGSAGGMLSGQVIEVTIPPERRLVRVEKLPSGDYLITIYRPDEPKPLETLRIRASAGGSAGGSAGG [r7_620_JUSTAS],1.78 ± 0.11 kcal/mol,1.49 ± 0.034 kcal/mol,1.92 ± 0.071 kcal/mol
SAGGSAKKEVYKINIKVYNKNGKKVKEIKIELPEELKGKTIEEIAKELAKKLNIEKIEVKIEPVKPSAGGSA [r15_333_TrROS_Hall],2.78 ± 0.21 kcal/mol,1.61 ± 0.18 kcal/mol,3.19 ± 0.1 kcal/mol
SAGGSAGGSAGKKKVKLVEFDEETGYALLEVEDEETGETKLVLVPMTAEELEALPNIEVLSAGGSAGGSAGG [r17_46_TrROS_Hall],2.08 ± 0.24 kcal/mol,2.14 ± 0.24 kcal/mol,1.91 ± 0.079 kcal/mol
SMITLELTDPATGAKYTLTIDPSTGKAKVTRTPPTGPPVSGTGTIEGNTLTITLYEPSGKPLATLTLPLPSA [r9_665_JUSTAS],5.6 ± 0.13 kcal/mol,3.89 ± 0.11 kcal/mol,5.53 ± 0.1 kcal/mol
SAGMLVRVTLKYPDGKTIKIPFPYAKILSEETSNNETTFTIDSPESADKAVEAIKKEYPDIEVKVEPLESAG [r5_453_JUSTAS],2.23 ± 0.058 kcal/mol,1.67 ± 0.022 kcal/mol,2.46 ± 0.035 kcal/mol
SAGGSAGGSAGGSSYQLKLEAEFLVGDSSGKLYKVKLTITVNEDGSISIDLEVLSVFDVSAGGSAGGSAGGS [r4_496_TrMRF],5.41 ± 0.16 kcal/mol,4.16 ± 0.2 kcal/mol,5.46 ± 0.11 kcal/mol
SAGGMLRVTATVGYAPDDPAVELAKKIAEALTPPGMKVRMKAKVTPLADGTYRIDIEVEIRPPGEPGSAGGS [r16_128_TrMRF],3.27 ± 0.14 kcal/mol,2.65 ± 0.16 kcal/mol,3.64 ± 0.13 kcal/mol
SAGGSASVEIIFDPNKPTVTIYVPGPVDPNEPITLTLPGGPSLTITEIEVEKIGKEYVVKAKVTKLSAGGSA [r15_838_JUSTAS],1.8 ± 0.051 kcal/mol,1.14 ± 0.04 kcal/mol,2.12 ± 0.03 kcal/mol
SAGGSAGGSAYELVIVGTPELALKLAKEFAEKNPESVANLKIEKITAALPVPFLSPDGIPESAGGSAGGSAG [r3_89_TrMRF],0.0822 ± 0.24 kcal/mol,0.0947 ± 0.1 kcal/mol,0.207 ± 0.39 kcal/mol
SAGGSAGGSPPDFVIQPEVEHTRDPENGKHEATVKIEIMDGRPIEIPFKSPEDAEDAIKELINSAGGSAGGS [r12_389_TrROS],0.829 ± 0.13 kcal/mol,1.14 ± 0.079 kcal/mol,0.382 ± 0.098 kcal/mol
SAGGSAGGSAGMIDIKFEKIEGSSEYRATLTRPGGEVVPVLFSSSESAEEAKERAIELLESAGGSAGGSAGG [r17_161_JUSTAS],1.15 ± 0.12 kcal/mol,0.906 ± 0.06 kcal/mol,1.28 ± 0.11 kcal/mol
SAGGSAGGSAGMFVERTLEITFVRPPNGPGPEEVEKRAKELQEKNPHLNVKVKVVDPSEASAGGSAGGSAGG [r17_220_JUSTAS],0.699 ± 0.26 kcal/mol,0.669 ± 0.086 kcal/mol,0.795 ± 0.1 kcal/mol
SAGGSMAPDVKVEVEVFPDGLVLFRLTLPDGRPFLALAEVREDGRVKVVVFDLYPGEKVEFEIPIKSAGGSA [r2_99_TrMRF],3.28 ± 0.14 kcal/mol,2.52 ± 0.12 kcal/mol,3.7 ± 0.045 kcal/mol
SMVVERDPDGVLRVYASPEEAERIVAELKAAGLDARVEAFDPETGVWVIPVRPVPPAGLEPTPENQALNRVS [r1_78_JUSTAS],0.962 ± 0.071 kcal/mol,0.502 ± 0.029 kcal/mol,1.23 ± 0.073 kcal/mol
SAGGMPPDARKLIREIAQDFGMSDIEPDEEGHVRINMPNPMMIQVDVENGEPKIKIYNNNKWREIPISAGGS [r16_296_TrROS],0.437 ± 0.13 kcal/mol,0.355 ± 0.079 kcal/mol,0.411 ± 0.31 kcal/mol
